Values of other authors in paper PMC7365847.
Where two headings read alike, the source gives them in different places. Blank lines part the entries; values can stand above or below the substance they belong to.

Columns and labels:
IL-18BP (Homo sapiens) = IL-18BP (Homo sapiens) (UniProt O95998)
IL-1Ra (Homo sapiens) = IL-1Ra (Homo sapiens) (UniProt P18510)
IL-1β (Homo sapiens) [1] = target: IL-1β (Homo sapiens) (UniProt P01584)
IL-1β (Homo sapiens) [2] = target: IL-1β (Homo sapiens) (UniProt P01584); remark: listed apart in the source

Chain of IL-1β (Homo sapiens) (P01584 117-269): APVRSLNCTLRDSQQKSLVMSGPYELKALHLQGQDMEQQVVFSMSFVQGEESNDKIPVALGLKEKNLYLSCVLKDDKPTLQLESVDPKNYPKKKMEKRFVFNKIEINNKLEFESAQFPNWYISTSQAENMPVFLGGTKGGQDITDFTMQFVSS
Chain of IL-1Ra (Homo sapiens) (P18510 26-177): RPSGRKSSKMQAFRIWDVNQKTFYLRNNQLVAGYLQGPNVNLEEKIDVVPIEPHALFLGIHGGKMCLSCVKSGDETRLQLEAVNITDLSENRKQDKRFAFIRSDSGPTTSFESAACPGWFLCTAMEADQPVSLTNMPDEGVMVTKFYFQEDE
Chain of sIL-1R2/sIL-1R3 complex (P27930 14-398): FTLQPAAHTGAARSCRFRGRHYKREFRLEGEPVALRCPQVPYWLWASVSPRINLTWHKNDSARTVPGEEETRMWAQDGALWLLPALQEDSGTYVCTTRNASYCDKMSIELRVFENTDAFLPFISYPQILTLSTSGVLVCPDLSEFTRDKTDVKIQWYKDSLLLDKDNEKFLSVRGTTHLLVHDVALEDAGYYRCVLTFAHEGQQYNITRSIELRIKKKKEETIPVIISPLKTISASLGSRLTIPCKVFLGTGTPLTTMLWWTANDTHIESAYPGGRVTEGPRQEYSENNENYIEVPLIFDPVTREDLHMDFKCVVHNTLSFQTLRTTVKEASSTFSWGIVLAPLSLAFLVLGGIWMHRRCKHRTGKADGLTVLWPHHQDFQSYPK
Chain of sIL-1R2/sIL-1R3 complex (Q9NPH3 21-570, further chain): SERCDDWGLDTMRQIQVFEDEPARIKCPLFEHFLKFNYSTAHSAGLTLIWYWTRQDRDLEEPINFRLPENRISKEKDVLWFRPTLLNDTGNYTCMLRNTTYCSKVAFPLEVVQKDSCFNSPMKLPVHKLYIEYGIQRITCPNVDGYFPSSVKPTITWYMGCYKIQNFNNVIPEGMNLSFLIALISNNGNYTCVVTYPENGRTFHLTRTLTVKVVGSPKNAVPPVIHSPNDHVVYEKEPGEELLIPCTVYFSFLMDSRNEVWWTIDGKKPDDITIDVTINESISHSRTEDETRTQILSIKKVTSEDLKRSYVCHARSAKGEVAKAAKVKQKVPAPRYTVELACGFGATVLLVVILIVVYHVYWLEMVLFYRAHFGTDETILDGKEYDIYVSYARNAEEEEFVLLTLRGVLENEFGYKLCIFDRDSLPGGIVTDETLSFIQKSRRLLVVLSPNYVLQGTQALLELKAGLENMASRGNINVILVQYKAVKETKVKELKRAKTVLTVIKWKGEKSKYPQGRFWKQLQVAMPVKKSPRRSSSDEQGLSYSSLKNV
Chain of IL-18BP (Homo sapiens) (O95998 31-194): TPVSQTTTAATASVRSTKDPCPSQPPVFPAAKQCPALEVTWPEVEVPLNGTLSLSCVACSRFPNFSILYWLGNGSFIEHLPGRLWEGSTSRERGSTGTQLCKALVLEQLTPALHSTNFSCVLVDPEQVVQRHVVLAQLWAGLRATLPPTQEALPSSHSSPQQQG
Chain of IL-18 (Q14116 37-193): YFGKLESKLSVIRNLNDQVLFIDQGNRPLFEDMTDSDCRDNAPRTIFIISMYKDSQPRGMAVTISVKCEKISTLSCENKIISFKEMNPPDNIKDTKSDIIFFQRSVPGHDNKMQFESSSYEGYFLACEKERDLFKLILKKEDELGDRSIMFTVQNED

Substance: IL-18 (from UniProt Q14116)
Kd (IL-18BP (Homo sapiens)): 0.4 nM

Kd (IL-1Ra (Homo sapiens)): 25000 nM
Kd (IL-1β (Homo sapiens) [1]): 2.7 nM
Substance: sIL-1R2 (from UniProt P27930)

Kd (IL-1β (Homo sapiens) [2]): 0.0056 nM
Substance: sIL-1R2/sIL-1R3 complex (from UniProt P27930)
